Target: ParC55 (topoisomerase IV ParC breakage-reunion domain);ParE30 (topoisomerase IV ParE TOPRIM domain) (Streptococcus pneumoniae;Streptococcus …, UniProt P72525;Q59961 1-488;404-647, |)
Test: X-ray crystallography (3.1 A); PD 0305970 (two intercalated), Mg2+; cleaved DNA, covalent Tyr118; Complex: 20 mM Tris-HCl pH 7.0, 200 then 75 mM NaCl, 10% glycerol, 1 mM b-mercaptoethanol, 20 mM MgCl2, 0.05% NaN3, PD 0305970, room temperature; crystals: 50 mM Na cacodylate pH 6.5, 2.5% Tacsimate pH 7.0, 62.5 mM KCl, 7.5 mM MgCl2, 4-6% isopropanol; data at 100 K
Conditions: protein: recombinant;recombinant; tags: C-terminal His tag;N-terminal His tag; chain copies: 2;2; blunt

Chain of ParC55 (topoisomerase IV ParC breakage-reunion domain);ParE30 (topoisomerase IV ParE TOPRIM domain) (P72525 1-488, chain 1 of 2): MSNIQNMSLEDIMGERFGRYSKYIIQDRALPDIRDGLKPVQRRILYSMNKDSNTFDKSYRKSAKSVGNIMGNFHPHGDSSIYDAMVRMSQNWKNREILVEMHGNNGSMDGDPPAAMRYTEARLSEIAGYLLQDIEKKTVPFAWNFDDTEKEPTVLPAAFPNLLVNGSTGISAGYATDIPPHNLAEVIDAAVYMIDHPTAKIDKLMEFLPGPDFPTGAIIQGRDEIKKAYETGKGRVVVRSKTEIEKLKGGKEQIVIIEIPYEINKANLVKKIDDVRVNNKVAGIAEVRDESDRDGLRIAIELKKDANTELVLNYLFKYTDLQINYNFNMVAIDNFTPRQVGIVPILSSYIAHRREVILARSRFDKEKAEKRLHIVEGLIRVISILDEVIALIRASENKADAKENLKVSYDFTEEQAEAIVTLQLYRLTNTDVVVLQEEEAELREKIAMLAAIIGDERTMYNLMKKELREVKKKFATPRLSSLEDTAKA
Chain of ParC55 (topoisomerase IV ParC breakage-reunion domain);ParE30 (topoisomerase IV ParE TOPRIM domain) (Q59961 404-647, chain 2 of 2): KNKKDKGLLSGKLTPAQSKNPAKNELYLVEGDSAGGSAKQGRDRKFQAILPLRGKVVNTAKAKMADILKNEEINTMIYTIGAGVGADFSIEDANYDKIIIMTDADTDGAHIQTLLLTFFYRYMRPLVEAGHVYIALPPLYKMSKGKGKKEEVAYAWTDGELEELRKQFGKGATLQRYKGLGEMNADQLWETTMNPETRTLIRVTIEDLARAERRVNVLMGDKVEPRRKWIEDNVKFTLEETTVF

B1: 34-bp E-site G-segment DNA (dsDNA)
DNA 1: ACCAAGGTCATGAATGACTATGCACGTAAAACAG
DNA 2: CTGTTTTACGTGCATAGTCATTCATGACCTTGGT
modifications: none (cleaved with 4-bp stagger in the complex, or resealed, by row)
B1: binds.
